{"source": "patent US20190085314A1", "about": "(SAINT LOUIS UNIVERSITY, published 2019)", "key": {"[1]": {"biological_target": "AtUBC8 (Arabidopsis thaliana ubiquitin conjugating enzyme E2 8), 6xHIS-tagged (Arabidopsis thaliana) (UniProt P35131)", "sequence (P35131 whole entry, the tested form may be a part)": "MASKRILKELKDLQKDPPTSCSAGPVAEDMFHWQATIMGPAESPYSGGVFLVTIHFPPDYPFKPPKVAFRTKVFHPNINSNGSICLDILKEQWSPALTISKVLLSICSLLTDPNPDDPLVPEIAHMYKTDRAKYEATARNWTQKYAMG", "assay": "Delta G calculated for residues 74-82 of AtMUB3 within the co-crystal structure; unit not given"}, "[2]": {"biological_target": "AtUBC8 (Arabidopsis thaliana ubiquitin conjugating enzyme E2 8), 6xHIS-tagged (Arabidopsis thaliana) (UniProt P35131)", "assay": "interface area calculated for residues 74-82 of AtMUB3 within the co-crystal structure"}, "[3]": {"biological_target": "T1, AtUBC8 (Arabidopsis thaliana ubiquitin conjugating enzyme E2 8), 6xHIS-tagged (Arabidopsis thaliana, UniProt P35131 1-148)", "T1 construct": "The crystal model holds residues 1-147/1-148; also called AtUBC08; not shown: 6xHIS tag", "T1 sequence (P35131 whole entry, the tested form may be a part)": "as above", "assay": "Isothermal titration calorimetry (MicroCal iTC200), 110 uM AtMUB3 titrated into 8 uM AtUBC8, OneSites model; 25 mM HEPES pH 7.5, 200 mM NaCl, 1 mM TCEP", "procedure": "FIG. 13. […] Proteins were purified as described for crystallization and dialyzed extensively against a buffer containing 25 mM HEPES, pH 7.5, 200 mM NaCl, 1 mM TCEP. Data was processed with MicroCal Origin 7 software, and normalized against the dialysis buffer's heat of dilution."}, "[4]": {"biological_target": "T2, biotinylated E2 (Ube2D3), from the E1/E2 Lite kit (LifeSensors) (UniProt P61077 1-147, limits assumed, biotinylated (site not stated); labelled with streptavidin-terbium in the assay)", "T2 construct": "Bought kit reagent; also called biotinylated Ube2D3", "T2 sequence (P61077 whole entry)": "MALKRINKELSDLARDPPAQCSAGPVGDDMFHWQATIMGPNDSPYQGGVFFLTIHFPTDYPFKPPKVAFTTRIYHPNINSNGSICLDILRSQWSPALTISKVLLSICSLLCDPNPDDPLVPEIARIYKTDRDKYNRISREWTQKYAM", "assay": "HTRF-FRET E2 activation assay; initial velocity against HsMUB concentration, one-site binding fit; IC50 equal to Ki under limiting E2"}}, "data": [{"molecule": "AtMUB3 (74-82) (from UniProt Q9SW27 74-82)", "values": [{"measurement": "Delta G", "setting": "[1]", "value": -5}, {"measurement": "Surface area (Å^2)", "setting": "[2]", "value": 288, "unit": "Å^2"}]}, {"molecule": "AtMUB3 (Arabidopsis thaliana Membrane-anchored Ubiquitin-fold protein 3), 6xHIS-tagged (other, UniProt Q9SW27 1-118, looked up, Expressed in E. coli, so not prenylated; An N-terminal 6xHIS AtMUB3 is also described; also called AtMUB3-His; not shown: C-terminal 6xHIS tag from pET28b) MPEEESIDIKFRLYDGSDIGPFRYSAASTVDFLKQRVVSDWPKGKTVVPKGINEVKLISSGKILENNKTVGQCKTPFGDIAGGVIVMHVVVQPSLAKSKTEKKVDKAPKAVICTCTIL", "values": [{"measurement": "Ka", "setting": "[3]", "value": "3.53e+06", "unit": "M⁻¹"}, {"measurement": "Kd", "setting": "[3]", "value": 283, "unit": "nM"}, {"measurement": "ΔH", "setting": "[3]", "value": -8840, "unit": "cal/mol"}, {"measurement": "ΔS", "setting": "[3]", "value": 0.331, "unit": "cal/mol/deg"}]}, {"molecule": "HsMUB (Homo sapiens Membrane-anchored Ubiquitin-fold protein), C-terminal 6xHIS (other, The coding region was cloned with the stop codon removed; also called Ubl3; human MUB; not shown: C-terminal 6xHIS tag from pET28b) MSSNVPADMINLRLILVSGKTKEFLFSPNDSASDIAKHVYDNWPMDWEEEQVSSPNILRLIYQGRFLHGNVTLGALKLPFGKTTVMHLVARETLPEPNSQGQRNREKTGESNCCVIL", "values": [{"measurement": "Ki", "setting": "[4]", "value": 220, "unit": "nM"}]}]}
